Measured values taken from US8486893B2, “Treatment of conditions involving demyelination” (Biogen Idec MA Inc., priority 2004, dated 2013).
Positions of bridges follow the written chain, without caps; N, C: chain ends. No end group written: not given here. *: point of attachment. Biotin = O=C1N[C@H]2[C@H](CS[C@H]2CCCCC(=O)*)N1

What was measured:
Assay type in all cases: cell-based, rat
[1] = system: co-cultures of dorsal root ganglion (DRG) neurons and oligodendrocytes; experiment: In vitro myelination in co-cultures of DRG neurons and oligodendrocytes; details: for expression of MBP by western blot: 4-week-old treated cocultures, 10 μg/ml for Fc fusions; for number of myelinating MBP+ cells compared with controls: cocultures infected with lentivirus for two weeks, FIG. 10E; for MBP in cultures by western blot: cocultures infected with lentivirus, FIG. 10F
Description: The role of Sp35 in myelination was examined in vitro by treating co-cultures of dorsal root ganglion (DRG) neurons and oligodendrocytes with Sp35-Fc and testing for myelination by immunohistochemistry and electron microscopy. For these studies, it was necessary to first generate primary cultures of DRG neurons and of oligodendrocytes.
Female Long Evans rat E14-E17 embryonic dorsal root ganglia were cultured as described by Plant et al., J. Neurosci. 22:6083-91 (2002). Dissected DRGs were plated on poly-L-lysine-coated cover slips (100 μg/ml) for 2 weeks in the presence of fluorodeoxyuridine for days 2-6 and days 8-11 in NLA medium containing 1× B27, 100 ng/ml NGF (Invitrogen).
A2B5^+ oligodendrocytes were prepared as described in Example 1, and were harvested by trypsinization.
For coculture studies, A2B5^+ oligodendrocytes were added to DRG neuron drop cultures in the presence or absence of 10 μg/ml Sp35-Fc. The culture medium (Neurobasal medium supplemented with B27 and 100 ng/ml NGF) was changed, and fresh Sp35-Fc was added to the cells every 3 d. To identify changes in myelination, 2-week-old cultures were stained by immunohistochemical staining (“IHC”) for neurofilaments with anti-βIII-tubulin antibody to identify axons, or anti-MBP antibody to identify oligodendrocytes., and 4-week-old cultures were subjected to SDS-PAGE followed by western blot analyses to quantify the MBP. In selected examples, cells were fixed for electron microscopy studies by adding 2.5% gluteraldehyde directly onto the cover slips. Myelinated axons in the 2-week-old cultures were quantified by counting the number of myelinated internode bundles that were derived from single MBP^+ oligodendrocytes. Samples were analyzed in duplicate. Error bars denote individual determinations. P values in all studies were determined using a one-way analysis of variance.
Several peptides containing portions of the Ig domain of Sp35 were examined in vitro, by treating co-cultures of dorsal root ganglion (DRG) neurons and oligodendrocytes with Sp35 Ig peptides and testing for myelination as described in Example 5.
For co-culture studies, A2B5^+ oligodendrocytes were added to DRG neuron drop cultures in the presence or absence of 10 μg/ml Sp35-Ig-Fc (Sp35 amino acids 417-493 fused to Fc). The culture medium (Neurobasal medium supplemented with B27 and 100 ng/ml NGF) was changed, and fresh Sp35-Ig-Fc was added to the cells every 3 d. To identify changes in myelination, 2-week-old cultures were stained by immunohistochemical staining (“IHC”) for neurofilaments with anti-βIII-tubulin antibody to identify axons, or anti-MBP antibody to identify oligodendrocytes and 4-week-old cultures were subjected to SDS-PAGE followed by western blot analyses to quantify the MBP.
We performed experiments to address the relative contributions to the myelination process of Sp35 in DRG neurons as compared to oligodendrocytes. We infected DRG neurons, oligodendrocytes and co-cultures (prepared as described in Example 5) with the FL-Sp35 and DN-Sp35 lentiviral vectors described in Example 1 and performed immunohistochemical straining for myelinated MBP cells after two weeks. A 2-fold increase in MBP levels in co-cultures where both cells express DN-Sp35 and a 2-fold decrease in MBP levels in co-cultures where both cells express FL-Sp35 was observed (FIG. 10G).

Fyn kinase = experiment: Fyn expression and phosphorylation in oligodendrocytes by western blotting; details: lentivirus-infected oligodendrocytes, FIG. 9B
Description: The activity of RhoA GTPase is regulated by Fyn kinase See Liang, X, et al., J. Neurosci. 24:7140-7149 (2004). Increased Fyn expression and phosphorylation correlate with oligodendrocyte differentiation. Id. See also Osterhout, D. J., et al., J. Cell Biol. 145:1209-1218 (1999). To test if Sp35 antagonists affect Fyn function, Fyn expression and phosphorylation were measured directly by western blotting.

Oligodendrocytes = experiment: Oligodendrocyte differentiation after infection with FL-Sp35 or DN-Sp35 lentivirus; details: lentivirus at 2 MOI per cell
Description: Enriched populations of oligodendrocytes were grown from female Long Evans P2 rats as described by Conn, Meth. Neurosci. 2:1-4 (Academic Press; 1990) with modifications as follows. Briefly, the forebrain was dissected and placed in Hank's buffered salt solution (HBSS; Invitrogen). The tissue was cut into 1-mm fragments and was incubated at 37° C. for 15 min in 0.01% trypsin and 10 μg/ml DNase. Dissociated cells were plated on poly-L-lysine-coated T75 tissue culture flasks and were grown at 37° C. for 10 d in DMEM medium with 20% fetal calf serum (Invitrogen). Oligodendrocyte precursors (A2B5+) were collected by shaking the flask overnight at 200 rpm at 37° C., resulting in a 95% pure population. Cultures were maintained in high-glucose Dulbecco's modified Eagle's medium (DMEM) with FGF/PDGF (10 ng/ml; Peprotech) for 1 week. Removal of FGF/PDGF allowed A2B5^+ cells to differentiate into O4^+ premyelinating oligodendrocytes after 3-7 d, and to differentiate into O4^+ and MBP^+ mature oligodendrocytes after 7-10 d. These differentiation states are readily apparent from changes in morphology: A2B5^+ cells are bipolar in shape, O4^+ premyelinating oligodendrocytes have longer and more branched processes and MBP^+ mature oligodendrocytes contain myelin sheet structures between processes.
We constructed lentiviral vectors that express wild-type and a dominant-negative form of Sp35. […]

[2] = co-cultures where both cell types express the construct, two weeks, FIG. 10G

Biotin-GSGCLSPRKHC (SEQ ID NO:63; cysteine pairing not given here)
expression of MBP by western blot [1]: increased expression of MBP

Biotin-GSGCLSPEKVC (SEQ ID NO:65; cysteine pairing not given here) [reference compound]
expression of MBP by western blot [1]: no increase in MBP

Biotin-GSGCKHSPLRC (SEQ ID NO:64; cysteine pairing not given here) [reference compound]
expression of MBP by western blot [1]: no increase in MBP

Ac-CLSPEKVC (SEQ ID NO:67) (disulfide 1-8 (inferred); listed as Homo sapiens) [cyclic control peptide, reference compound]
expression of MBP by western blot [1]: no increase in MBP

Ac-CLSPRKHC (SEQ ID NO:66) (Ac-CLSPRKHC-NH2; disulfide 1-8 (inferred); listed as Homo sapiens) [cyclized LSPRKH peptide with terminal cysteines, acetyl at N-terminus and NH2 at C-terminus]
expression of MBP by western blot [1]: increased expression of MBP

B1: FL-Sp35: mouse full length Sp35, amino acid residues 34-614 of SEQ ID NO:2, expressed from lentiviral vector (protein, listed as Homo sapiens)
chain: TGCPPRCECSAQDRAVLCHRKRFVAVPEGIPTETRLLDLGKNRIKTLNQDEFASFPHLEELELNENIVSAVEPGAFNNLFNLRTLGLRSNRLKLIPLGVFTGLSNLTKLDISENKIVILLDYMFQDLYNLKSLEVGDNDLVYISHRAFSGLNSLEQLTLEKCNLTSIPTEALSHLHGLIVLRLRHLNINAIRDYSFKRLYRLKVLEISHWPYLDTMTPNCLYGLNLTSLSITHCNLTAVPYLAVRHLVYLRFLNLSYNPISTIEGSMLHELLRLQEIQLVGGQLAVVEPYAFRGLNYLRVLNVSGNQLTTLEESVFHSVGNLETLILDSNPLACDCRLLWVFRRRWRLNFNRQQPTCATPEFVQGKEFKDFPDVLLPNYFTCRRARIRDRKAQQVFVDEGHTVQFVCRADGDPPPAILWLSPRKHLVSAKSNGRLTVFPDGTLEVRYAQVQDNGTYLCIAANAGGNDSMPAHLHVRSYSPDWPHQPNKTFAFISNQPGEGEANSTRATVPFPFDIKTLIIATTMGFISFLGVVLFCLVLLFLWSRGKGNTKHNIEIEYVPRKSDAGISSADAPRKFNMKMI
Fyn phosphorylation (Fyn kinase): reduced by twofold | Fyn protein expression (Fyn kinase): reduced by twofold | number of mature oligodendrocytes compared with the control (Oligodendrocytes): reduction in the number of mature oligodendrocytes | decrease in MBP levels [1, 2]: 2 fold | number of myelinating MBP+ cells compared with controls [1]: decreased the number of myelinating MBP^+ cells twofold | MBP in cultures by western blot [1]: twofold reduction | basal levels of myelination in comparison to control (empty vector) ([1]; overexpression in either or both cell types): significantly descreased

B2: DN-Sp35: dominant negative Sp35, amino acid residues 34-581 of SEQ ID NO:2, expressed from lentiviral vector (protein, listed as Homo sapiens)
chain: TGCPPRCECSAQDRAVLCHRKRFVAVPEGIPTETRLLDLGKNRIKTLNQDEFASFPHLEELELNENIVSAVEPGAFNNLFNLRTLGLRSNRLKLIPLGVFTGLSNLTKLDISENKIVILLDYMFQDLYNLKSLEVGDNDLVYISHRAFSGLNSLEQLTLEKCNLTSIPTEALSHLHGLIVLRLRHLNINAIRDYSFKRLYRLKVLEISHWPYLDTMTPNCLYGLNLTSLSITHCNLTAVPYLAVRHLVYLRFLNLSYNPISTIEGSMLHELLRLQEIQLVGGQLAVVEPYAFRGLNYLRVLNVSGNQLTTLEESVFHSVGNLETLILDSNPLACDCRLLWVFRRRWRLNFNRQQPTCATPEFVQGKEFKDFPDVLLPNYFTCRRARIRDRKAQQVFVDEGHTVQFVCRADGDPPPAILWLSPRKHLVSAKSNGRLTVFPDGTLEVRYAQVQDNGTYLCIAANAGGNDSMPAHLHVRSYSPDWPHQPNKTFAFISNQPGEGEANSTRATVPFPFDIKTLIIATTMGFISFLGVVLFCLVLLFLWSRGKG
Fyn phosphorylation (Fyn kinase): twofold increases | Fyn protein expression (Fyn kinase): twofold increases | number of mature oligodendrocytes compared with the control (Oligodendrocytes): increase in the number of mature oligodendrocytes | increase in MBP levels [1, 2]: 2 fold | number of myelinating MBP+ cells compared with controls [1]: increased the total number of myelinating MBP^+ cells five- to tenfold | MBP in cultures by western blot [1]: tenfold increase

B3: Sp35-Ig-Fc: Sp35 amino acids 417-493 fused to Fc (protein)
chain: RARIRDRKAQQVFVDEGHTVQFVCRADGDPPPAILWLSPRKHLVSAKSNGRLTVFPDGTLEVRYAQVQDNGTYLCIA
modifications: left off: a dimerising Fc or GST
notes: Sp35 amino acids 417-493 fused to Fc
expression of MBP by western blot [1]: increased | increase in MBP protein compared with Sp35-Fc ([1]; western blot, FIG. 15): comparable
